Measurements taken from patent publication US20220119534A1 (DRAGONFLY THERAPEUTICS, published 2022).

B1: 9E4.B7 (antibody, V domains shown)
VH: EVQLQESGAELMKPGASVKISCRTTGYTFSTYWIEWVKQRPGRGPEWIGELFPGNSDTTLNEKFTGKATFTADSSSNTAYMQLSSLTSEDSAVYYCARSGYYGSSLDYWGQGTTLTVSS
VL: GIVMTQSPASLSASVGETVTITCRAGENIHSYLAWYQQKQGKSPQLLVYNAKTLAEGVPSRFSGSGSGTQFSLKINSLQPEDFGSYYCQHHYGTPRTFGGGTKLEIK
notes: Murine mAb; also called 9E04
B2: AB0147 TriNKET (other)
chain: QLQLQESGPGLVKPSETLSLTCTVSGFSLTNYGLHWIRQPPGKCLEWIGVILSGGWTDYNPSLKSRVTISKDTSKNQFSLKLSSVQAADTAVYYCAKGDYGDALDYWGQGTLVTVSSGGGGSGGGGSGGGGSGGGGSDIQMTQSPSSLSASVGDRVTITCHASQNINFWLSWYQQKPGKAPKLLIYEASNLHTGVPSRFSGSGSGTRFTLTISSLQPEDIATYYCQQSHSYPLTFGCGTKLEIKGSDKTHTCPPCPAPELLGGPSVFLFPPKPKDTLMISRTPEVTCVVVDVSHEDPEVKFNWYVDGVEVHNAKTKPREEQYNSTYRVVSVLTVLHQDWLNGKEYKCKVSNKALPAPIEKTISKAKGQPREPRVYTLPPCRDELTKNQVSLTCLVKGFYPSDIAVEWESNGQPENNYKTTPPVLVSDGSFTLYSKLTVDKSRWQQGNVFSCSVMHEALHNHYTQKSLSLSPG
heavy: EVQLVESGGGLVKPGGSLRLSCAASGFTFSSYSMNWVRQAPGKGLEWVSSISSSSSYIYYADSVKGRFTISRDNAKNSLYLQMNSLRAEDTAVYYCARGAPIGAAAGWFDPWGQGTLVTVSSASTKGPSVFPLAPSSKSTSGGTAALGCLVKDYFPEPVTVSWNSGALTSGVHTFPAVLQSSGLYSLSSVVTVPSSSLGTQTYICNVNHKPSNTKVDKKVEPKSCDKTHTCPPCPAPELLGGPSVFLFPPKPKDTLMISRTPEVTCVVVDVSHEDPEVKFNWYVDGVEVHNAKTKPREEQYNSTYRVVSVLTVLHQDWLNGKEYKCKVSNKALPAPIEKTISKAKGQPREPQVCTLPPSRDELTENQVSLTCLVKGFYPSDIAVEWESNGQPENNYKTTPPVLDSDGSFFLYSWLTVDKSRWQQGNVFSCSVMHEALHNHYTQKSLSLSPG
light: DIQMTQSPSSVSASVGDRVTITCRASQGISSWLAWYQQKPGKAPKLLIYAASSLQSGVPSRFSGSGSGTDFTLTISSLQPEDFATYYCQQGVSFPRTFGGGTKVEIKRTVAAPSVFIFPPSDEQLKSGTASVVCLLNNFYPREAKVQWKVDNALQSGNSQESVTEQDSKDSTYSLSSTLTLSKADYEKHKVYACEVTHQGLSSPVTKSFNRGEC
B3: human CLEC12A expressed on cells (receptor)
chain: MSEEVTYADLQFQNSSEMEKIPEIGKFGEKAPPAPSHVWRPAALFLTLLCLLLLIGLGVLASMFHVTLKIEMKKMNKLQNISEELQRNISLQLMSNMNISNKIRNLSTTLQTIATKLCRELYSKEQEHKCKPCPRRWIWHKDSCYFLSDDVQTWQESKMACAAQNASLLKINNKNALEFIKSQSRSYDYWLGLSPEEDSTRGMRVDNIINSSAWVIRNAPDLNNMYCGYINRLYVQYYHCTYKKRMICEKMANPVQLGSTYFREA
notes: Transduced isogenic cells or endogenous expression on AML cells; also called RMA-hCLEC12A; Ba/F3-hCLEC12A

Key:
[1] = target: T1, recombinant cynomolgus CLEC12A-His (cynomolgus monkey, UniProt A0A2K5WXQ4 71-271); test: SPR, purified murine subclone mAb and Cyno CLEC12A-His
T1 construct: also called cCLEC12A-His; cCLEC12A
T1 sequence: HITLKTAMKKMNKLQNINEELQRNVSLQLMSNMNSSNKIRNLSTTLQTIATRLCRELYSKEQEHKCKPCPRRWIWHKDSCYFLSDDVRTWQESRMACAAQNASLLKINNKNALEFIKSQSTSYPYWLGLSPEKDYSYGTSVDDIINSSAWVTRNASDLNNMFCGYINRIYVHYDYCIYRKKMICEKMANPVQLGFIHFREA

[2] = target: T2, cynomolgus CLEC12A expressed on RMA cells (cynomolgus monkey, UniProt A0A2K5WXQ4 7-271); test: flow cytometry, RMA-cCLEC12A, hybridoma supernatant
T2 construct: whole, on cells; also called cCLEC12A isogenic cell line
T2 sequence: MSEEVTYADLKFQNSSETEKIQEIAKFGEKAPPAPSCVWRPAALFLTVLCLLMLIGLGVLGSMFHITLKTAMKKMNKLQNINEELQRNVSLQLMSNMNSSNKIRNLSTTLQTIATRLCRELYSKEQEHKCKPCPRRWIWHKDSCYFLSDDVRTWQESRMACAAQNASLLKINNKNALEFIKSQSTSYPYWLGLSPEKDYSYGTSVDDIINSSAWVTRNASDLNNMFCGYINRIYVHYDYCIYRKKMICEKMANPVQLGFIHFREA

[3] = target: B3; test: flow cytometry, PL21 cells
[4] = target: B3; test: flow cytometry on PL21 cells, surface-bound molecule after 2 h at 37 C relative to 20 min on ice
AB0300 = target: T3, AB0300 (Homo sapiens (Human), UniProt P0DOX5 2-448 = IgG part; P0DOX7 1-214, L234A; L235A; P329G); test: flow cytometry on Ba/F3-hCLEC12A cells, fold over background
T3 construct: AB0237 with LALAPG in both Fc chains

With B1 the binding result [1] was “no binding”, the binding result [2] was “no binding” and the EC50 [3] was 0.64 nM. For the same binder, the “Max MFI” value [3] was 186 MFI.

B2: binds [4].

B3: binds (AB0300).
